This note sets out measurements from the nanobody polyreactivity screen of Harvey et al. (2022).

The series can be described thus: yeast display, Sf9 membrane polyspecificity reagent, FACS + sequencing; frameworks hold sequencing errors. The method in brief: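 Nanobodies from a synthetic yeast display library (Saccharomyces cerevisiae BJ5465), induced 36–48 hours with galactose, were stained 1 hour at 4 °C with 10% biotinylated, detergent-solubilized Sf9 membrane reagent, enriched on streptavidin microbeads, then FACS-sorted. Anti-HA (expression) and streptavidin (reagent binding) fluorescence set low and high (top ~1%) gates. Polyreactivity labels come from the gate of origin. Genes were colony-PCR amplified, MiSeq 2 × 250 sequenced and filtered by CDR length.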
As to “QVQLVESGGGLVQAGGSLRLSCAASGRISFRYAMGWYRQAPGKERELVAAINRGGITNYADSVKGRFTISRDNAKNTVYLQMNSLKPEDTAVYYCAARYASPRYKSKIAYWGQGTQVSVSS”, the “polyreactivity (PSR sort gate)” value is “high polyreactivity”.
As for “QVQLVESGGGLVQAGGSLRLSCAASGRISFYYAMGWYRQAPGKERELVATISSSGGSTHYADSVKGRFTISRDNAKNTVYLQMNSLKPEDTAVYYCARDDSDRIWLEQSGYWGQGTQVTVSS”, the “polyreactivity (PSR sort gate)” value is “low polyreactivity”.
Turning to “QVQLVESGGGLVQAGGSLRLSCAASGRISGGYDMGWYRQAPGKERELVAAITNTGGITYYADSVKGRFTISRDNAKNTVYLQMNSLKPEDTAVYYCNAEYEISFYVLFDYWGQGTQVTVSS”, the “polyreactivity (PSR sort gate)” value was “low polyreactivity”.
“QVQLVESGGGLVQAGGSLRLSCAASGRISHYNAMGWYRQAPGKERELVAAISSRGGSTYYADSVKGRFTISRDNAKNTVYLQMNSLKPEDTAVYYCADTAGYWGQGTQVTVSS”: the “polyreactivity (PSR sort gate)” value was “high polyreactivity”.
The result for “QVQLVESGGGLVQAGGSLRLSCAASGRISIKNAMGWYRQAPGKERELVAAIRWSADSTYYADSVKGRFTISRDNAKNTVYLQMNSLIPEDTAVYYCAATGRLRYYWGQGTQVTVSS” reads “high polyreactivity”; that for “QVQLVESGGGLVQAGGSLRLSCAASGRISKGYAMGWYRQAPGKERELVAAISWRTSSTYYADSVKGRFTISRDNAKNTVYLQMNSLKPEVTAVYYCAAETWLGSWRQVGMDYWGQGTQVTVSS”, “high polyreactivity”.
The result for “QVQLVESGGGLVQAGGSLRLSCAASGRISKYNAMGWYRQAPGKERELVAAINQRGTSTYYADSVKGRFTISRDNEMNTVYLQMNSLKPEDTAVYYCATTGYRFYLMDYWGQGTQVTVSS” reads “low polyreactivity”; that for “QVQLVESGGGLVQAGGSLRLSCAASGRISLFNAMGWYRQAPGKERELVAAITYTGGSTYYADSVKGRFTISRDNAKNTVYLQMNSLKPVDTAVYYCAADPWTAKDDSWGQGTQVTVSS”, “high polyreactivity”.
Take “QVQLVESGGGLVQAGGSLRLSCAASGRISLYYTMGWYRQAPGKEREFVAAISSTGGSTYYADSVKGRFTISRDNAKNTVYLQMNSLKPEDTAVYYCAKAYHATSDYWGQGTQVTVSS”: the “polyreactivity (PSR sort gate)” value is reported as “low polyreactivity”.
Take “QVQLVESGGGLVQAGGSLRLSCAASGRISPKNAMGWYRQAPGKERELVATIRKIGGRTYYADSVKGRFTISRDNAKYTVYLQMNSLKPEDTAVYYCATDFAPSYYPDRFDYWGQGTQVTVSS”: the “polyreactivity (PSR sort gate)” value is on record as “low polyreactivity”.
Turning to “QVQLVESGGGLVQAGGSLRLSCAASGRISQGYAMGWYRQAPGKERELVAVISRSGGSTYYADSVKGRFTISRDNAKNTVYLQMNSVKPEDTAVYYCASRYYWRGYYWGQGTQVTVSS”, the “polyreactivity (PSR sort gate)” value is “high polyreactivity”.
The same measure for “QVQLVESGGGLVQAGGSLRLSCAASGRISQIYARGWYRQAPGKERELVASISSSGSRTYYADSVKGRFTISRDHAKNTVYLQMNSLKPEDTAVYYCAATYLKVHGEYDYWGQGTQVTVSS”: “high polyreactivity”.
As for “QVQLVESGGGLVQAGGSLRLSCAASGRISRGYAMGWYRQAPGKERELVAAIDSDGDTNYADSVKGRFTISRDNAKNTVYLQMNSLKPEDTAVYYCNKDGAYKTAYKRWTLYDYWGQGTQVTVSS”, the “polyreactivity (PSR sort gate)” value is given as “low polyreactivity”.
With “QVQLVESGGGLVQAGGSLRLSCAASGRISSLYAMGWYRQAPGKERELVAAISGTGGSAYYADSVKGRFTISRDNAKNTVYLQLNSLKPEDTAVYYCNAVRRWRTSQFDYWGQGTQVTVSS”, the “polyreactivity (PSR sort gate)” value is listed as “low polyreactivity”.
Consider “QVQLVESGGGLVQAGGSLRLSCAASGRISTRYTMGWYRQAPRKERELVAAISGNAGRTYYADSVKGRFTISRDNAKNTVYLEMNSLKPADTAVYYCARESGYRAYEIQFYYWGQGTQVTVSS”, for which the “polyreactivity (PSR sort gate)” value is listed as “high polyreactivity”.
For “QVQLVESGGGLVQAGGSLRLSCAASGRISVFNAMGWYRQAPGKERELVAAITSGGSTNYADSVKGRFTISRDNAKNTVYLQMNSLKPEDTAVYYSNADVYHSHEPHYDYWGQGTQVTVSS”, the “polyreactivity (PSR sort gate)” value was “low polyreactivity”.
In the case of “QVQLVESGGGLVQAGGSLRLSCAASGRISVRIYAMGWYRQAPGKERELVAIISRSGGSTYYADSVKGRFTISRDNAKNTVYLQMNSLKPEDTEVYYCNARWSFSYTVWVDSYWCLDDYWGQGTQVTVSS”, the “polyreactivity (PSR sort gate)” value is reported as “high polyreactivity”.
As to “QVQLVESGGGLVQAGGSLRLSCAASGRISYANAMGWYRQAPGKERELVASITYSAGSTYADSVKGRFTISRDNAKYTVYLQMNSLKPEDSAVYYCNAYHVIYARESDYWGQCTQVTVSS”, the “polyreactivity (PSR sort gate)” value is on record as “low polyreactivity”.
In the case of “QVQLVESGGGLVQAGGSLRLSCAASGRISYLYTMGWYRQAPGKERELVAAIRWRDGSTYYADSVKGRFTISRDNAKNTVYLQMNSLTPEDTAVYYCAATPVGFYWYDYWGQGTQVTVSS”, the “polyreactivity (PSR sort gate)” value is recorded as “low polyreactivity”.
Consider “QVQLVESGGGLVQAGGSLRLSCAASGRISYNNAMGWYRQAPGKERELVAAITKNGGRTYYADSVKGRFTISRDNAKNTVYLQMNSLKPEDTAVYYCAVRSYYYGYDYWGQGTQVTVSS”, for which the “polyreactivity (PSR sort gate)” value is given as “high polyreactivity”.
For the sequence “QVQLVESGGGLVQAGGSLRLSCAASGRISYSNAMGWYRQAPGKERELVAAITSSGGSTYYADSVKGRFTISRDNAKNTVYLQMNSLKPEDTAVYYCAAVAYALGFASKEDYWGQGTQVTVSS”, the “polyreactivity (PSR sort gate)” value is reported as “high polyreactivity”.
With “QVQLVESGGGLVQAGGSLRLSCAASGRIVANAMGWYRQAPGKERELVAAISWSGGRTFYADSVKGRFTISRDNAKNTVYLQMNSLKPEDSAVYYCNARGPVYARYDYCGQGTQVTVSS”, the “polyreactivity (PSR sort gate)” value is “low polyreactivity”.
As for “QVQLVESGGGLVQAGGSLRLSCAASGRIVGYYAMGWYRQAPGKERELVATITFGGGSTYYADTVKGRFTISRDIAKNTVYLQMNSLKPEDTAVYYCAAEIYPLGSLRLGPGEYDHWGQGTQVTVSS”, the “polyreactivity (PSR sort gate)” value was “low polyreactivity”.
Turning to “QVQLVESGGGLVQAGGSLRLSCAASGRIVRSYTMGWYRLEPGKERELVSDITSGTSTSYADSVKGRFTISRDNAKNTVYLQINSLKPEDTAVYYCNADVSNYFWNWPYQGMDYWGQGTQVTVSS”, the “polyreactivity (PSR sort gate)” value is listed as “low polyreactivity”.
As to “QVQLVESGGGLVQAGGSLRLSCAASGRIVYIYAMGWYRQAPGKERELVAAISSGGTTNYADSVKGRFTISRDNAKNTVYLQMNSLKPEDTAVYYCAAYWRSRNRFYWGQGTQVTVSS”, the “polyreactivity (PSR sort gate)” value is listed as “high polyreactivity”.
“QVQLVESGGGLVQAGGSLRLSCAASGRIYAMGWYRQAPGKERELVAAISRGGSTYYADSVKGRFTISRDNAKNTVYLQMNSLKPEDTAVYYCARRYASTGYDYWGQGTQVTVSS”: the “polyreactivity (PSR sort gate)” value was “high polyreactivity”.
“QVQLVESGGGLVQAGGSLRLSCAASGRIYGPNAMGWYRQAPGKERELVAAISTSGGSTYYADSVKGRFTISRDNAKNTVYLQMNSLKPEDTAVYYCNVVHRGSWYYFWGQGTQVTVSS”: the “polyreactivity (PSR sort gate)” value is “high polyreactivity”.
The same measure for “QVQLVESGGGLVQAGGSLRLSCAASGRIYLKYTMGWYRQAPGKEREMVAAISRGGSTYYADSVKGRFTISRDNAKNTVYLQMNSLKPEDTAVYYCAATSYRRTGYNYWGQGTQVTVSS”: “high polyreactivity”; for “QVQLVESGGGLVQAGGSLRLSCAASGRIYRYAIGWYRQAPGKERELVASISYSGGSTYYADSVNGRFTISRDNAKNTVYLQMNSLKPEDTAVYYCAARTRHVHYGDWGQGTQVTVSS”: “high polyreactivity”.
With “QVQLVESGGGLVQAGGSLRLSCAASGRIYSRYAMGWYRQAPGKERELVAAISASGGSTYYADSVKGRFTISRDNAKNTVYLQMNSLKPEDTAVYYCNAYQTSTPLFPGYGYWGQGTQVTVSS”, the “polyreactivity (PSR sort gate)” value is given as “low polyreactivity”.
The same measure for “QVQLVESGGGLVQAGGSLRLSCAASGRIYSYYARGWYRPAPGKERELVAAISRTGGTTYYADSVKGRFTISRDNAKNTVYLQMNSLKPEDTAVYYCAASGGYRPHRYQIGDYDYWGQGTQVTVSS”: “high polyreactivity”; for “QVQLVESGGGLVQAGGSLRLSCAASGRIYVTNAMGWYRQAPGKERELVASISSGGRTHYADSVKGRFTISRDNAKNTVYLQMNSLKPEDTAVYYCAKPPLYYYPDLRGEEFYYWGQGTQVTVSS”: “low polyreactivity”.
As to “QVQLVESGGGLVQAGGSLRLSCAASGRIYYPYAMGWYRQAPGKERELVASINYRGGSTYYADSVKGRFTISRDNAKNTVYLQMNSLKPEDTAVYYCAARFYWKYWRYDYWGQGTQVTVSS”, the “polyreactivity (PSR sort gate)” value is reported as “high polyreactivity”.
Regarding “QVQLVESGGGLVQAGGSLRLSCAASGRLCGIYTMGWYRQAPGKERELVAAISKRGSSTSYADSVKGRFTISRDNAKNTVYLQMNSQKPEDTAVYYCAARYGYSYRYSGFDYWGQGTQVTVSS”, the “polyreactivity (PSR sort gate)” value was “high polyreactivity”.
On to “QVQLVESGGGLVQAGGSLRLSCAASGRLFHPYAMGWYRQAPGKERELVARITTSGGSTSYADSVKGRFTISRDNAKNTVYLQMNSLKPEDTAVYYSAADRARYYSEYDYWGQGTQVTVSS”, for which the “polyreactivity (PSR sort gate)” value is listed as “low polyreactivity”.
The same measure for “QVQLVESGGGLVQAGGSLRLSCAASGRLFKSYAMGWYRQAPGKERELVAAIRSGGSTYYADSVKGRFTISRDNAKNTVYLQMISLKPEDTAVYYCNRVTRTWTVTYHYWGQGTQVTVSS”: “high polyreactivity”.
As for “QVQLVESGGGLVQAGGSLRLSCAASGRLFYLNAMGWYRQAPGKERDLVAAISGSTGSTYYADSVKGRITISRDNAMNPVYLHMTSLKPVDTAVYYSNAGGVYVEFNYWGQGTQVTVSS”, the “polyreactivity (PSR sort gate)” value is reported as “low polyreactivity”.
With “QVQLVESGGGLVQAGGSLRLSCAASGRMFTHNVMGWYRQAPGKERELVAAISASGGSTYYADSVKGRFTISRDNAKNTVYLQMNSLKPEDTAVYYCNAGDYRTFYRRFDYWGQGTQVTVSS”, the “polyreactivity (PSR sort gate)” value is given as “low polyreactivity”.
For “QVQLVESGGGLVQAGGSLRLSCAASGRMIKYNTMGWYRQAPGKERELVAAISLSSGSGGGTRYADSVKGRFKISRDNAKNTVYLQMNSLKPEDTAVYYCAARHRYTNEYDYWGQGTQVTVSS”, the “polyreactivity (PSR sort gate)” value is recorded as “low polyreactivity”.
Take “QVQLVESGGGLVQAGGSLRLSCAASGRNFDGYAMGWYRQAPGKERQLVAAISGGGNTKYADSVKGRFTISRDNAKNTVYLKMISLKPEDTAVYYCAARGYYYGYRFDSWGQGTQVTVSS”: the “polyreactivity (PSR sort gate)” value is given as “high polyreactivity”.
For “QVQLVESGGGLVQAGGSLRLSCAASGRNFGAYAMGWYRPAPGKERELVAAITTAGSTHYADSVKGRFTISRDNAKNTVYLQMKSLKPQDTAVYYCAADGIARSYVLFDAYDFLYDYWGQGTQVTVSS”, the “polyreactivity (PSR sort gate)” value is “low polyreactivity”.
